From patent US20180155451A1 (published 2018)

T1: FcgRIIb (human, UniProt P31994 43-217)
T1 construct: extracellular domain; also called FcγRIIb; not shown: His tag attached to the C terminus
T1 sequence (looked up): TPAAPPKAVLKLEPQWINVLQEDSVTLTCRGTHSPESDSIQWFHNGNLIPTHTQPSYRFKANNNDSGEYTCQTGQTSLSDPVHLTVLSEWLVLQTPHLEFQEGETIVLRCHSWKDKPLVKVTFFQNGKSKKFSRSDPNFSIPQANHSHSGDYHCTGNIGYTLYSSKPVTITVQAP


Columns and labels:
Experiment in all cases: SPR (Biacore); KD of H240-Kn061/H240-Hl071/L73-k0 divided by KD of the variant
FcgRIIb = target: T1, FcgRIIb
Protocol: (§1) The antibodies were assessed for the binding to each FcgR. […] The resultant value was defined as relative KD, and used as an assessment indicator.
(§2) Analysis of interaction between obj ective antibody and the FcγR was carried out using Biacore T100 (GE Healthcare), Biacore T200, Biacore A100, and Biacore 4000. HBS-EP+ (GE Healthcare) was used as the running buffer, and the measurement temperature was set to 25° C. Chips produced by immobilizing the antigen peptide by the amine coupling method to a Series S sensor Chip CM5 (GE Healthcare), chips produced by allowing preliminarily biotinylated antigen peptides to interact with and immobilize onto a Series S Sensor Chip SA (certified) (GE Healthcare), chips produced by immobilizing Protein L (ACTIGEN, BioVision) to Series S Sencor Chip CM5 (GE Healthcare), or chips produced by immobilizing Protein A/G (Thermo Scientific) to Series S Sencor Chip CM5 (GE Healthcare) were used. Antibodies of interest were captured onto these chips, and allowed to interact to each FcγR diluted with running buffer.

FcgRIIIa F = target: T2, FcgRIIIa F (human, UniProt P08637 17-208)
T2 construct: extracellular domain; also called FcγRIIIa F; 3aF; not shown: His tag attached to the C terminus
T2 sequence (P08637 17-208): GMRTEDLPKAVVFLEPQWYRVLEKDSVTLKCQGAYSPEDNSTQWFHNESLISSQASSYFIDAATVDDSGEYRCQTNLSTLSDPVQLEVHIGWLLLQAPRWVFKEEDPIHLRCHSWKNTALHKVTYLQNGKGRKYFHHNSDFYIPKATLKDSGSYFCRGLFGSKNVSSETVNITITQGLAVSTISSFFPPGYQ
Protocol: as §1, §2

FcgRIIIa V = target: T3, FcgRIIIa V (human, UniProt P08637 17-208)
T3 construct: extracellular domain; also called FcγRIIIa V; not shown: His tag attached to the C terminus
T3 sequence (P08637 17-208 F176V limits assumed): as the sequence (P08637 17-208) above, with F160V counted along it
Protocol: as §1, §2

Binder | Relative KD (FcgRIIb) | Relative KD (FcgRIIIa F) | Relative KD (FcgRIIIa V)
H240-Kn061 (Y235M)/H240-Hl071/L73-k0 (antibody, human IgG1, kappa) heavy 1: QDQLVQSGAEVKKPGASVKVSCKASGFNIKDTYIQWVRQAPGQGLEWMGRIDPLRKQTKYREKFEGRVTITADTSTNTAYMELSSLRSEDTAVYYCVRSGREFDYWGQGTLVTVSSASTKGPSVFPLAPSSKSTSGGTAALGCLVKDYFPEPVTVSWNSGALTSGVHTFPAVLQSSGLYSLSSVVTVPSSSLGTQTYICNVNHKPSNTKVDKKVEPKSCDKTHTCPPCPAPEYMWGPSVFLFPPKPKDTLMISRTPEVTCVVVDVSDEDPEVKFNWYVDGVEVHNAKTKPREEQYNATYRVVSVLTVLHQDWLNGKEYKCKVSNKALPAPIEKTISKAKGQPREPQVCTLPPSRDELTKNQVSLWCLVKGFYPSDIAVEWESNGQPENNYKTTPPVLDSDGSFFLYSKLTVDKSRWQQGNVFSCSVMHEALHNHYTQKSLSLSP heavy 2: QDQLVQSGAEVKKPGASVKVSCKASGFNIKDTYIQWVRQAPGQGLEWMGRIDPLRKQTKYREKFEGRVTITADTSTNTAYMELSSLRSEDTAVYYCVRSGREFDYWGQGTLVTVSSASTKGPSVFPLAPSSKSTSGGTAALGCLVKDYFPEPVTVSWNSGALTSGVHTFPAVLQSSGLYSLSSVVTVPSSSLGTQTYICNVNHKPSNTKVDKKVEPKSCDKTHTCPPCPAPELLGGPSVFLFPPKPKDTLMISRTPEVTCVVVDVSHEDPEVKFNWYVDGVEVHNAKTKPREEQYNSTYRVVSVLTVLHQDWLNGKEYKCKVSNDALPMPIEETISKAKGQPREPQVYTLPPSRCELTKNQVSLSCAVKGFYPSDIAVEWESNGQPENNYKTTPPVLDSDGSFFLVSKLTVDKSRWQQGNVFSCSVMHEALHNHYTQKSLSLSP light: DIQMTQSPSSLSASVGDRVTITCRASQDIHKYIAWYQQKPGQAPRLLIQYTSTLQPGVPSRFSGSGSGTDYTFTISSLQPEDIATYYCLQYEQLRTFGGGTKVEIKRTVAAPSVFIFPPSDEQLKSGTASVVCLLNNFYPREAKVQWKVDNALQSGNSQESVTEQDSKDSTYSLSSTLTLSKADYEKHKVYACEVTHQGLSSPVTKSFNRGEC | 0.7 | 1.7 | 1.8
H240-Kn061 (Y235N)/H240-Hl071/L73-k0 (antibody, human IgG1, kappa) heavy 1: QDQLVQSGAEVKKPGASVKVSCKASGFNIKDTYIQWVRQAPGQGLEWMGRIDPLRKQTKYREKFEGRVTITADTSTNTAYMELSSLRSEDTAVYYCVRSGREFDYWGQGTLVTVSSASTKGPSVFPLAPSSKSTSGGTAALGCLVKDYFPEPVTVSWNSGALTSGVHTFPAVLQSSGLYSLSSVVTVPSSSLGTQTYICNVNHKPSNTKVDKKVEPKSCDKTHTCPPCPAPEYNWGPSVFLFPPKPKDTLMISRTPEVTCVVVDVSDEDPEVKFNWYVDGVEVHNAKTKPREEQYNATYRVVSVLTVLHQDWLNGKEYKCKVSNKALPAPIEKTISKAKGQPREPQVCTLPPSRDELTKNQVSLWCLVKGFYPSDIAVEWESNGQPENNYKTTPPVLDSDGSFFLYSKLTVDKSRWQQGNVFSCSVMHEALHNHYTQKSLSLSP heavy 2: QDQLVQSGAEVKKPGASVKVSCKASGFNIKDTYIQWVRQAPGQGLEWMGRIDPLRKQTKYREKFEGRVTITADTSTNTAYMELSSLRSEDTAVYYCVRSGREFDYWGQGTLVTVSSASTKGPSVFPLAPSSKSTSGGTAALGCLVKDYFPEPVTVSWNSGALTSGVHTFPAVLQSSGLYSLSSVVTVPSSSLGTQTYICNVNHKPSNTKVDKKVEPKSCDKTHTCPPCPAPELLGGPSVFLFPPKPKDTLMISRTPEVTCVVVDVSHEDPEVKFNWYVDGVEVHNAKTKPREEQYNSTYRVVSVLTVLHQDWLNGKEYKCKVSNDALPMPIEETISKAKGQPREPQVYTLPPSRCELTKNQVSLSCAVKGFYPSDIAVEWESNGQPENNYKTTPPVLDSDGSFFLVSKLTVDKSRWQQGNVFSCSVMHEALHNHYTQKSLSLSP light: DIQMTQSPSSLSASVGDRVTITCRASQDIHKYIAWYQQKPGQAPRLLIQYTSTLQPGVPSRFSGSGSGTDYTFTISSLQPEDIATYYCLQYEQLRTFGGGTKVEIKRTVAAPSVFIFPPSDEQLKSGTASVVCLLNNFYPREAKVQWKVDNALQSGNSQESVTEQDSKDSTYSLSSTLTLSKADYEKHKVYACEVTHQGLSSPVTKSFNRGEC | 0.7 | 1.3 | 2
